# Laboratory results from article PMC8293163 (2021).
# Positions count from the first letter of the chain named.
# B1: 10E8v4-P100fA Fab (Fab, V domains shown)
# VH: EVRLVESGGGLVKPGGSLRLSCSASGFDFDNAWMTWVRQPPGKGLEWVGRITGPGEGWSVDYAESVKGRFTISRDNTKNTLYLEMNNVRTEDTGYYFCARTGKYYDFWSGYAPGEEYFQDWGQGTLVIVSS
# VL: ASELTQDPAVSVALKQTVTITCRGDSLRSHYASWYQKKPGQAPVLLFYGKNNRPSGIPDRFSGSASGNRASLTITGAQAEDEADYYCSSRDKSGSRLSVFGGGTKLTVL
# B2: 10E8v4 Fab (Fab, V domains shown)
# VH: B1 VH with A112P
# VL: SELTQDPAVSVALKQTVTITCRGDSLRSHYASWYQKKPGQAPVLLFYGKNNRPSGIPDRFSGSASGNRASLTITGAQAEDEADYYCSSRDKSGSRLSVFGGGTKLTVL
# B3: 10E8v4-P100fA-P100gA Fab (Fab, V domains shown)
# VH: B1 VH with P113A
# VL: B1 VL
# B4: 10E8v4-H31FLC Fab (Fab, V domains shown)
# VH: B1 VH with A112P
# VL: B2 VL with H29F
# B5: 10E8v4-P100gA Fab (Fab, V domains shown)
# VH: B1 VH with A112P, P113A
# VL: B1 VL
# Molecular target: T117-F MPER scaffold
# Experiment: BLI
row,Binder,Kd [nM]
1,B1,103
2,B2,9.4
3,B3,2750
4,B4,1460
5,B5,171

# Molecular target: T117-F MPER scaffold
# Experiment: BLI
# Remark: another data set of the same source
row,Binder,koff [s⁻¹]
1,B1,0.021
2,B2,0.00137
3,B3,0.0583
4,B4,0.0364
5,B5,0.0314
